Data taken from paper PMC2173747 (The Journal of Cell Biology, 2003).

Biological target: purified human gelsolin (human, UniProt P06396 28-782)
Assay: ELISA

purified human gelsolin, sequence (P06396 28-782): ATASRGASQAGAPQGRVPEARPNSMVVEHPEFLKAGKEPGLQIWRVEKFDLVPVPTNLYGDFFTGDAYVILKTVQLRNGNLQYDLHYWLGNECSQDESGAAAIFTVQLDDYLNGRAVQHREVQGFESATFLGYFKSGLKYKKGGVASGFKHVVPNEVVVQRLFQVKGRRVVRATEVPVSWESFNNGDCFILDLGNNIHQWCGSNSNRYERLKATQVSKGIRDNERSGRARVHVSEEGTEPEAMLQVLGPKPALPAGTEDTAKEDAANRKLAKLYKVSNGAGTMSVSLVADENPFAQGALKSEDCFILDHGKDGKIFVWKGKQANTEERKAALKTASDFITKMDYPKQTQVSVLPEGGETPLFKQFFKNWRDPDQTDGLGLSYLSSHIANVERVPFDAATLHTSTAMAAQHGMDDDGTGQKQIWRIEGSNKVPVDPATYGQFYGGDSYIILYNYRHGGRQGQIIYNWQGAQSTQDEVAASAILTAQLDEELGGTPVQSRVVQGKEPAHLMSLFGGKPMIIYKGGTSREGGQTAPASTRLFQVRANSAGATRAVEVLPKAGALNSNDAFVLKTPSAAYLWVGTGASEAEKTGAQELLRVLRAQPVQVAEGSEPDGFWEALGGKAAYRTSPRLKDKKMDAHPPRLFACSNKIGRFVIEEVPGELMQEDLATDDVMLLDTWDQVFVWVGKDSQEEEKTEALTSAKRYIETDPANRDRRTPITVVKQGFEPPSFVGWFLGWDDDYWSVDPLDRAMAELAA

B1: GST-PYK2Δ1–781 (domain or fragment)
chain: EEDFIQPSSREEAQQLWEAEKVKMRQILDKQQKQMVEDYQWLRQEEKSLDPMVYMNDKSPLTPEKEVGYLEFTGPPQKPPRLGAQSIQPTANLDRTDDLVYLNVMELVRAVLELKNELCQLPPEGYVVVVKNVGLTLRKLIGSVDDLLPSLPSSSRTEIEGTQKLLNKDLAELINKMRLAQQNAVTSLSEECKRQMLTASHTLAVDAKNLLDAVDQAKVLANLAHPPAE
B1 showed an EC50 of 30 ± 4 nM.
